Results on one molecule are retold here after PMC4045772 (PLoS ONE, 2014).

The target in the test is biotinylated Cul3/Rbx1 (UniProt Q13618 1-768; P62877 1-108, biotin (BirA biotinylation of the Avi tag)). As to the kind of experiment: AlphaScreen or HTRF; 30 nM His-tagged Keap1 (35-235) incubated with CDDO or DMSO 2.5 h at 37°C, then 30 nM biotinylated Cul3/Rbx1 1.5 h at room temperature; nickel chelate donor beads and streptavidin acceptor beads. Particulars: both partners purified. A general note: Bead proximity is the source of the signal in Alpha formats.
Chain of biotinylated Cul3/Rbx1 (Q13618 whole entry, chain 1 of 2): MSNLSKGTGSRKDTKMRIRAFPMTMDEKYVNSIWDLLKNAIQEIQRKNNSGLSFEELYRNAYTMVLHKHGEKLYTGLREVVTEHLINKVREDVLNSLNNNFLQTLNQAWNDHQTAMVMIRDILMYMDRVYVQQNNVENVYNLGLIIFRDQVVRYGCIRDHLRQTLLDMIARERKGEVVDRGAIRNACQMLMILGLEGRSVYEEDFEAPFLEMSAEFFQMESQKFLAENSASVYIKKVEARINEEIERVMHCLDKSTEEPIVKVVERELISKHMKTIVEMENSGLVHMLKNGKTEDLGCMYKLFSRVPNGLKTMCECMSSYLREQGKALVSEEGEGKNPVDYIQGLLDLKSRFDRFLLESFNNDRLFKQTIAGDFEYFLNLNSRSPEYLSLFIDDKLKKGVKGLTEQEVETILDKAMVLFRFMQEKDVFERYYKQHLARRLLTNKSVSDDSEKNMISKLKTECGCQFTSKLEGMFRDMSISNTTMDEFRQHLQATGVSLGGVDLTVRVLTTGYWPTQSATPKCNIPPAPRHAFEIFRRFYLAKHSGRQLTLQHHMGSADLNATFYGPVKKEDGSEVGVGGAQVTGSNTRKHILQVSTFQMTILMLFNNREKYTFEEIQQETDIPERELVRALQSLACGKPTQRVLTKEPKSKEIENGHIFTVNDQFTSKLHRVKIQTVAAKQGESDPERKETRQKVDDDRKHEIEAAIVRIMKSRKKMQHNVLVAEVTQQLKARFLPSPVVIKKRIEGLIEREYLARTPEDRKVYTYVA
Chain of biotinylated Cul3/Rbx1 (P62877 whole entry, chain 2 of 2): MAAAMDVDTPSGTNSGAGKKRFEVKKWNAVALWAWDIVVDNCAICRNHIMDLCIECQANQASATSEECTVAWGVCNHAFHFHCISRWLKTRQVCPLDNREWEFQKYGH

B1: Keap1 BTB with the first ~50 residues of the BACK domain (residues 35-235), C151S (domain or fragment, human, UniProt Q14145 35-235, looked up)
chain: STECKAEVTPSQHGNRTFSYTLEDHTKQAFGIMNELRLSQQLCDVTLQVKYQDAPAAQFMAHKVVLASSSPVFKAMFTNGLREQGMEVVSIEGIHPKVMERLIEFAYTASISMGEKSVLHVMNGAVMYQIDSVVRACSDFLVQQLDPSNAIGIANFAEQIGCVELHQRAREYIYMHFGEVAKQEEFFNLSHCQLVTLISRD
On to B1, for which the binding result is “binds”.
